From patent US20240199757A1 (UNIVERSITY OF CHICAGO, published 2024) come the findings set out here.

The target in data set [1] is T1, human NT5E expressed on MDA-MB-231 cells (human, UniProt P21589 27-549).
T1 construct: whole, on cells; also called NT5E-expressing MDA-MB-231 cells; CD73
T1 sequence (looked up): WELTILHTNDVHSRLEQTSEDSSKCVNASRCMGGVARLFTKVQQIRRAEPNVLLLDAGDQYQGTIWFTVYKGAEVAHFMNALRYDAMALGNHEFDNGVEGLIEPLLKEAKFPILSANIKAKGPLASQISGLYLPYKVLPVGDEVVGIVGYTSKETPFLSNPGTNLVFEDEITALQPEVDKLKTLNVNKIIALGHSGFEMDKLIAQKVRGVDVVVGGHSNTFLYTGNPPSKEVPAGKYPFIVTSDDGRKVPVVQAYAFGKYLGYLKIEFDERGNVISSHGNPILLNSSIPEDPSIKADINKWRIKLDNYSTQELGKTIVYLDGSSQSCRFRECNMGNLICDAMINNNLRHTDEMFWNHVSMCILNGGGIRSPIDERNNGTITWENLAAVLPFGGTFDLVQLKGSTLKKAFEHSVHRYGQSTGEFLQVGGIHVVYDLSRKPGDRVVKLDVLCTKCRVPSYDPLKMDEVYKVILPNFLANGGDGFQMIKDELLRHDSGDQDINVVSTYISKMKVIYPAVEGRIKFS
The data set can be described thus: flow cytometry on MDA-MB-231 cells, 1 mM ATP. As to the method: Flow cytometry analysis of antibodies binding to human NT5E expressed on MDA-MB-231 cells in ATP-free condition (black) or in 1 mM ATP (red). Top panel: (left) 1780 Fab and (right) 1780 IgG titrations. […] Binding was measured at the indicated range of antibody concentrations and is expressed as mean±st. dev of median fluorescence intensity (MFI) of 1-2 replicates. Data were analyzed using OriginLab, and EC₅₀ values are shown next to the fitted curves.
Human MDA-MB-231 cells and murine 4T1 cells were grown to 90% confluency, detached with 5 mM EDTA for 15 min at 37° C. and then resuspended in 37° C. lx PBS (#10010031, Gibco) supplemented with 1% FBS and 1OpM ZnCl2. Separate working buffers (WB) of PBS and 1% FBS with or without fixed nucleotide concentrations were used throughout all washing steps to maintain constant condition. In 96-well plates (#3799, Costar), 0.2×10⁶ cells were added per well. The plates were spun at 500×g for 5 min and the supernatant was removed. Anti-NT5E antibodies were diluted to the desired concentration in 100 μL WB, added to the cells and the plates were incubated for 20 min at 37° C. Plates were spun and cells were washed twice with WB then spun a second time. Cells were stained with 100 μL of secondary antibody (Alexa Fluor 647 AffiniPure Goat Anti-Human IgG, F(ab′)2 fragment specific, #109-605-006, Jackson, 1:200) dilution and plates were incubated for 20 min at 37° C. Cells were washed twice with WB then fixed on ice with WB supplemented with 0.5% PFA. Fixing solution was removed by centrifugation and cells were resuspended in cold 1× PBS. Samples were analyzed by flow cytometry using CytoFLEX (Beckman Coulter) and mean fluorescence intensity (MFI) data was extracted using FlowJo software. Resulting binding data was plotted using OriginLab.

Data set [2] addresses hNT5EDF (substrate binding knock-out variant of hNT5E) (human). The data set can be described thus: DSF thermal shift, 1.5-fold molar excess of Fab, no ATP (hNT5EDF alone 44° C.). The method, then: With 1 mM ATP alone (red dashed line), the TM shifts from one transition at 49° C. to two transitions at TM 59° C. and 64° C. […] Thermal shift assays of substrate binding knock-out variants hNT5EDF (FIG. 2B) and hNT5EFF (FIG. 2C) show no change in thermal stability with the addition of ATP.
Thermal stability of samples was analyzed by differential scanning fluorimetry (DSF) using a real-time PCR instrument (Bio-Rad CFX384). Protein samples were mixed with 4× Sypro Orange at a final 4 μM concentration. For target/Fab complexes, 1.5-fold molar excess of Fab was used. All reactions were performed in triplicates in a 384-well plate. Thermal melting curves were monitored from 25° C. to 95° C. in steps of 0.5° C./30 s. Wavelengths of 490 and 575 nm were used for excitation and emission, respectively. The melting temperatures were inferred from the first derivative of the melting curves from the mean of triplicate runs using CFX software provided by the manufacturer.

In data set [3] the target is T2, Full-length murine NT5E (recombinant) (murine, UniProt Q61503 29-552).
T2 construct: also called mNT5E
T2 sequence: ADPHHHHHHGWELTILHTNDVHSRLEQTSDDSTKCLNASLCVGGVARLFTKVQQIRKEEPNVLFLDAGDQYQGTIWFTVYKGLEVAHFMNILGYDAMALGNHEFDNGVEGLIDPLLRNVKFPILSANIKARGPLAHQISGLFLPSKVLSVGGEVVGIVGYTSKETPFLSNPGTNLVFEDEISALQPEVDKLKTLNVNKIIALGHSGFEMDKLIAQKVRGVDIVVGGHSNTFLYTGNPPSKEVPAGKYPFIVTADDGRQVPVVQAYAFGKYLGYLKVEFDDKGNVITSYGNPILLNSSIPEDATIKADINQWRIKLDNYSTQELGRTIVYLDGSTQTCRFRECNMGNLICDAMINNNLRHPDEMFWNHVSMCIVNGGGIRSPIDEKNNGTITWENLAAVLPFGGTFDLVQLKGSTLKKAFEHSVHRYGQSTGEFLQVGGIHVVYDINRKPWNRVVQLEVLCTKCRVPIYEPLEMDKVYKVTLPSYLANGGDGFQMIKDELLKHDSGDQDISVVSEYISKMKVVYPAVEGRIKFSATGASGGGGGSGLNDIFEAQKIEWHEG
The data set can be described thus: ELISA, biotinylated NT5E on neutravidin plate, 1 mM ATP. As to the method:
(B) Protein ELISA: Protein-based multipoint ELISA was performed to estimate the affinity of the generated Fabs and IgGs to NT5E. The binding of the Fabs and IgGs to the closed form of NT5E were determined in ELISA buffer (HBST) supplemented with 10 μM zinc chloride and 1 mM ATP while the binding of the same to open form of NT5E were determined in ELISA buffer (HBST) without any cofactors. A fixed concentration of the immobilized target (50 nM) on ELISA plate was incubated with 3-fold serial dilutions of the purified Fabs and IgGs starting from 3 μM and 1 μM respectively for 15 min. The plates were washed and were subsequently incubated with a secondary HRP-conjugated anti-protein L monoclonal antibody (#32420, ThermoFisher, 1:6000 dilution). As with phage ELISA, the plates were again washed, developed with TMB substrate and quenched with 1.0 M HCl, and absorbance (Abs450) was determined. To determine the affinity (EC50), the data were fitted with a non-linear, 4-parameter logistic curve in OriginLab.

B1: 1789 Fab (Fab, V domains shown)
VH: EVQLVESGGGLVQPGGSLRLSCAASGFNVSYSSIHWVRQAPGKGLEWVASISSSSGYTYYADSVKGRFTISADTSKNTAYLQMNSLRAEDTAVYYCARNYWGWYPFYYFAFDYWGQGTLVTV
VL: DIQMTQSPSSLSASVGDRVTITCRASQSVSSAVAWYQQKPGKAPKLLIYSASSLYSGVPSRFSGSRSGTDFTLTISSLQPEDFATYYCQQGWDYPITFGQGTKVEIKR
Consider B1, for which the 50% effective concentration (EC50) in data set [1] was 52 nM. For the same molecule, in data set [2], the “TM of NT5E in the presence of the Fab” value turned out to be 48 ° C.

B2: 1789 IgG (antibody, V domains shown)
VH: EVQLVESGGGLVQPGGSLRLSCAASGFNVSYSSIHWVRQAPGKGLEWVASISSSSGYTYYADSVKGRFTISADTSKNTAYLQMNSLRAEDTAVYYCARNYWGWYPFYYFAFDYWGQGTLVTVSS
VL: DIQMTQSPSSLSASVGDRVTITCRASQSVSSAVAWYQQKPGKAPKLLIYSASSLYSGVPSRFSGSRSGTDFTLTISSLQPEDFATYYCQQGWDYPITFGQGTKVEIKR
In the case of B2, the EC50 in data set [3] amounted to 1.14 nM.
